Laboratory results as given in the supplement of paper PMC9170038.

System: MS2 coat protein
Test: apparent KD of MS2 coat protein; designed switch direction (-1 OFF switch, 1 ON switch): -1; higher = weaker reporter binding
Outline: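 Designed RNA switches with common flanks were made on Illumina chips by stalled E. coli RNA polymerase. Titration with SNAP-549-labelled MS2 coat protein doubled from 0.7 or 1.5 nM up to 3 µM. Apparent KD is each design's median over clusters after curve-fitting normalised fluorescence.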

[1] = Eterna round: R95, input ligand: FMN 200 uM
[2] = Eterna round: R95, input ligand: microRNA oligo, concentration not stated
[3] = Eterna round: R95, input ligand: none
[4] = input ligand: microRNA oligo, concentration not stated

UUUAAUUUUUUUUUUUUACAAGCUUUUUGCUCGUCUUAUACAUGAGGAUCACCCAUGUAGGUGAAAGAUAAAUUAUC [JMF 4] (puzzle: Sensor v3, turn-off variant 2)
apparent KD of MS2 coat protein [1]: 31.5 nM | apparent KD of MS2 coat protein [2]: 77.5 nM | apparent KD of MS2 coat protein [3]: 33.5 nM

UUUAAUUUUUUUUUUUUACAAGCUUUUUGCUCGUCUUAUACAUGAGGAUCACCCAUGUAGGUGAGAAGUAAAUUAUC [JMF 49] (puzzle: Sensor v3, turn-off variant 2)
apparent KD of MS2 coat protein [1]: 19.3 nM | apparent KD of MS2 coat protein [2]: 168 nM | apparent KD of MS2 coat protein [3]: 23.3 nM

UUUAAUUUUUUUUUUUUACAAGCUUUUUGCUCGUCUUAUACAUGAGGAUCACCCAUGUGAGUGGGAAAUGAAUUAUC [JMF 100] (puzzle: Sensor v3, turn-off variant 2)
apparent KD of MS2 coat protein [1]: 99 nM | apparent KD of MS2 coat protein [2]: 218 nM | apparent KD of MS2 coat protein [3]: 111 nM

UUUAAUUUUUUUUUUUUACAAGCUUUUUGCUCGUCUUAUACAUGAGGAUCACCCAUGUGGAUGGGAAGUAAAUUAUC [JMF 52] (puzzle: Sensor v3, turn-off variant 2)
apparent KD of MS2 coat protein [1]: 23.9 nM | apparent KD of MS2 coat protein [2]: 59.2 nM | apparent KD of MS2 coat protein [3]: 20.9 nM

UUUAAUUUUUUUUUUUUACAAGCUUUUUGCUCGUCUUAUACAUGAGGAUCACCCAUGUGGGUGAGAAAUGAAUUAUC [JMF 93] (puzzle: Sensor v3, turn-off variant 2)
apparent KD of MS2 coat protein [1]: 59.9 nM | apparent KD of MS2 coat protein [2]: 10.2 nM | apparent KD of MS2 coat protein [3]: 76.8 nM

UUUACAAGCUAAAGAUCCCACAUGAGGAUCACCCAUGUUGCUGCCGGUGACGGUAGCAUAACUUUUGCUCGUCUUAU [JL TOV1 3.59] (Eterna round: R97, puzzle: Sensor, turn-off variant 1)
apparent KD of MS2 coat protein (input ligand: FMN 200 uM): 278 nM | apparent KD of MS2 coat protein (input ligand: none): 342 nM

UUUACAAGCUAAUGAUCCCACAUGAGGAUCACCCAUGUUGCUGCCGUGAGGUAGCUUUUAACAUUUGCUCGUCUUAU [JL TOV1 3.40] (Eterna round: R97, puzzle: Sensor, turn-off variant 1)
apparent KD of MS2 coat protein (input ligand: FMN 200 uM): 733 nM | apparent KD of MS2 coat protein (input ligand: none): 1060 nM

UUUACAAGCUAUAGAUCCCACAUGAGGAUCACCCAUGUAGCUGCCAACGGUAGCUUUUUAUGGUUUGCUCGUCUUAU [JL TOV1 3.34] (Eterna round: R97, puzzle: Sensor, turn-off variant 1)
apparent KD of MS2 coat protein (input ligand: FMN 200 uM): 424 nM | apparent KD of MS2 coat protein (input ligand: none): 1210 nM

UUUACAAGCUUUUGAUCCCACAUGAGGAUCACCCAUGUUGCUGCCGGUGACGGUAGCAUAACAAAUGCUCGUCUUAU [JL TOV1 3.55] (Eterna round: R97, puzzle: Sensor, turn-off variant 1)
apparent KD of MS2 coat protein (input ligand: FMN 200 uM): 846 nM | apparent KD of MS2 coat protein (input ligand: none): 1160 nM

UUUAGUAUCUAGGAUAUCUAGUACAUAGUAUCUAGAGAAGGAGAUACAUGAGGAUCACCCAUGUUCUGUGUUCU [Exclusion 6 - 1:a] (puzzle: Exclusion 6)
apparent KD of MS2 coat protein [2]: 22.4 nM

UUUAGUUCAGGAUAUGAUGAAUUAAACAUGAGGAUCACCCAUGUAGAUCCUGAAUUAACAUCAGAAGGGAACAUUU [JL-ex5-4.48 Brourd mod] (Eterna round: R97, puzzle: Exclusion 5)
apparent KD of MS2 coat protein (input ligand: FMN 200 uM): 41.8 nM | apparent KD of MS2 coat protein (input ligand: none): 15 nM

UUUAGUUCAGGAUAUGUAGACAUUAACAUGAGGAUCACCCAUGUAGAUCCUGAAUUAACUACAGAAGGGAGCAUUU [Mod of Brourd 8 - Jieux - Exclusion 5] (Eterna round: R97, puzzle: Exclusion 5)
apparent KD of MS2 coat protein (input ligand: FMN 200 uM): 19.3 nM | apparent KD of MS2 coat protein (input ligand: none): 15.3 nM

UUUAGUUCAGGAUAUGUAGAUUUUAACAUGAGGAUCACCCAUGUAGAUCCUGAAUUAACUACAGAAGGGAACAUUU [Exclusion 5: 2:a] (Eterna round: R96, puzzle: Exclusion 5)
apparent KD of MS2 coat protein (input ligand: FMN 200 uM): 94.3 nM | apparent KD of MS2 coat protein [4]: 20.2 nM | apparent KD of MS2 coat protein (input ligand: none): 24.3 nM

UUUAGUUCAGGAUAUGUAGAUUUUAACAUGAGGAUCACCCAUGUAGAUCCUGAAUUAACUACAGAAGGGAACAUUU [Exclusion 5: 2:a] (puzzle: Exclusion 5)
apparent KD of MS2 coat protein [2]: 24.9 nM

UUUAGUUCAGGAUAUGUAGAUUUUAACAUGAGGAUCACCCAUGUAGAUCCUGAAUUAACUACAGAAGGGAACAUUU [Mod of Brourd 1 - Jieux - Exclusion 5] (Eterna round: R97, puzzle: Exclusion 5)
apparent KD of MS2 coat protein (input ligand: FMN 200 uM): 77.2 nM | apparent KD of MS2 coat protein (input ligand: none): 22.5 nM

UUUAGUUCAGGAUAUGUAGUUUUAAACAUGAGGAUCACCCAUGUAGAACCUGAUCCUGCUACAGAAGGGAACAUUU [Mat - Exclusion 5 - Eli Mod - D14] (Eterna round: R97, puzzle: Exclusion 5)
apparent KD of MS2 coat protein (input ligand: FMN 200 uM): 32 nM | apparent KD of MS2 coat protein (input ligand: none): 18.2 nM

UUUAUAAUUUCAAUCUUCGCCAGCAAACUUACGCUAGCCACAUGAGGAUCACCCAUGUUUUUUGUUCGUUUUAUUCU [Veedcera] (puzzle: Sensor v3, turn-off variant 2)
apparent KD of MS2 coat protein [1]: 18 nM | apparent KD of MS2 coat protein [2]: 57.5 nM | apparent KD of MS2 coat protein [3]: 19.5 nM

UUUAUAAUUUCAAUCUUCGCUGGCAAACUUACGCCAGCCACAUGAGGAUCACCCAUGUUUUUUGUUCGUUUUACUCU [Tetevea] (puzzle: Sensor v3, turn-off variant 2)
apparent KD of MS2 coat protein [1]: 18 nM | apparent KD of MS2 coat protein [2]: 64 nM | apparent KD of MS2 coat protein [3]: 22.5 nM

UUUAUAUAGUAAGGAUAUGUAUUAAUUUUAUAGACAGAAGGUACUGACAUGAGGAUCACCCAUGUUUUAGUGUGGGCAUGUAGU [JMF's solution 94] (Eterna round: R96, puzzle: Exclusion NG 1)
apparent KD of MS2 coat protein [4]: 299 nM

UUUAUGUCAGGAUAUACAUGAGGAUCACCCAUGUAUAUCUUAAGGUAUACAUGGGAAUGUAGAAGGGACCUCCU [Omei Ex3 Pseudoloop 7] (Eterna round: R97, puzzle: Exclusion 3)
apparent KD of MS2 coat protein (input ligand: FMN 200 uM): 40.7 nM | apparent KD of MS2 coat protein (input ligand: none): 41.3 nM

UUUAUUUUGCAAGGAUAUGUUUAAUUUUAGUUUCCUUACACAUGAGGAUCACCCAUGUUAUACUUACAGAAGGUGCAUAAUUUU [JR_ExcNG2_Sub038] (Eterna round: R96, puzzle: Exclusion NG 2)
apparent KD of MS2 coat protein [4]: 132 nM

UUUCAGCAAGGAUAUACGGGCUGUGCUUUUCAUUUCUUACAACAUGAGGAUCACCCAUGUAGAAGGUGCAACUU [Ex2 #10] (Eterna round: R97, puzzle: Exclusion 2)
apparent KD of MS2 coat protein (input ligand: FMN 200 uM): 110 nM | apparent KD of MS2 coat protein (input ligand: none): 26.5 nM

UUUCAUCAUGUAGGAUAUGCGUGGCAAAGCUAUGCAGAAGGACAUGAGGAUCACCCAUGUUCUAGCGUCUGCGUACAGAUGCUA [Mat - Exclusion NG 1 - Mod of JL - D73] (Eterna round: R96, puzzle: Exclusion NG 1)
apparent KD of MS2 coat protein (input ligand: FMN 200 uM): 404 nM | apparent KD of MS2 coat protein [4]: 43.2 nM | apparent KD of MS2 coat protein (input ligand: none): 68 nM

UUUCCCUGGCAAGGAUAUCCUGUGCGGUUCCGGCUCGUGUCUGUUACAUGAGGAUCACCCAUGUGGGAGAAGGUGCCUGUGGUU [Design 90] (Eterna round: R96, puzzle: Exclusion NG 2)
apparent KD of MS2 coat protein (input ligand: FMN 200 uM): 390 nM | apparent KD of MS2 coat protein [4]: 173 nM | apparent KD of MS2 coat protein (input ligand: none): 220 nM

UUUCCCUGUGUGAGGAUAUACUUGUUUGGGUUUUUGUAGAAGGCACAUGAGGAUCACCCAUGUACUCUGUCGUG [JR_BME4_Sub021] (puzzle: Brourd's mod of Exclusion 4)
apparent KD of MS2 coat protein [2]: 21.1 nM

UUUCCUUGUGUGAGGAUAUACUUGUUUGUGUUUUUGUAGAAGGCACAUGAGGAUCACCCAUGUACUCUUUCCUG [JR_BME4_Sub023] (Eterna round: R96, puzzle: Brourd's mod of Exclusion 4)
apparent KD of MS2 coat protein (input ligand: FMN 200 uM): 68.6 nM | apparent KD of MS2 coat protein [4]: 34.7 nM | apparent KD of MS2 coat protein (input ligand: none): 37.7 nM

UUUCCUUGUGUGAGGAUAUACUUGUUUGUGUUUUUGUAGAAGGCACAUGAGGAUCACCCAUGUACUCUUUCCUG [JR_BME4_Sub023] (puzzle: Brourd's mod of Exclusion 4)
apparent KD of MS2 coat protein [2]: 34.2 nM

UUUCGGCGGACCGUGGCUUUUUGCUCGUCUUAUGCUUCGACAUGAGGAUCACCCAUGUGGUGGUGGUCCGUUGUUGU [Grok-var2-12 mod JAL] (puzzle: Sensor v3, turn-off variant 2)
apparent KD of MS2 coat protein [1]: 29.9 nM | apparent KD of MS2 coat protein [2]: 20.3 nM | apparent KD of MS2 coat protein [3]: 48.9 nM

UUUCUUCAUAUCACAUGAGGAUCACCCAUGUUAUUCAUCGCGUAGGAUAUCGAGAUUUUUUUUUACGAGAAGGACGUAUUGAUA [JR_ExcNG3_Sub073] (Eterna round: R96, puzzle: Exclusion NG 3)
apparent KD of MS2 coat protein (input ligand: FMN 200 uM): 49 nM | apparent KD of MS2 coat protein [4]: 51.6 nM | apparent KD of MS2 coat protein (input ligand: none): 52.2 nM

UUUGAAUAAGUGAGGAUAUACUGUUAGUAUUGAUUGUAGAAGGUACAUGAGGAUCACCCAUGUUUAGUAUUUAU [JR_BME4_Sub038] (puzzle: Brourd's mod of Exclusion 4)
apparent KD of MS2 coat protein [2]: 15.6 nM

UUUGCAAGCUUUAGAUCCCACAUGAGGAUCACCCAUGUUGCUGCCGUGAGGUAGCAUUUAACUAAUGCUCGUCUUAU [JL TOV1 3.48] (Eterna round: R97, puzzle: Sensor, turn-off variant 1)
apparent KD of MS2 coat protein (input ligand: FMN 200 uM): 109 nM | apparent KD of MS2 coat protein (input ligand: none): 169 nM

UUUGGGUCAGGAUAUUGUUAGUUUAGUUGUUUGUAUUAGUUCGAGAAGGGACAUGAGGAUCACCCAUGUGGUUU [Ex4 #78] (Eterna round: R97, puzzle: Exclusion 4)
apparent KD of MS2 coat protein (input ligand: FMN 200 uM): 81.4 nM | apparent KD of MS2 coat protein (input ligand: none): 85.3 nM

UUUGUAUAUGAAGGAUAUACUUAACAUGAGGAUCACCCAUGUGGUGUUGUGAGUGAGUGAGUUUAGUAGAAGGUCAAGUAUUUU [JMF's solution 50] (Eterna round: R96, puzzle: Exclusion NG 2)
apparent KD of MS2 coat protein (input ligand: FMN 200 uM): 403 nM | apparent KD of MS2 coat protein [4]: 298 nM | apparent KD of MS2 coat protein (input ligand: none): 367 nM

UUUGUCAGCGUCGAAGUUUACAUGAGGAUCACCCAUGUGAUCAACACAGGCAUAUAAUUAGUAAUGAGUUCGUCUUC [Eternabot (L2) Solution 40] (Eterna round: R97, puzzle: Sensor, turn-off variant 1)
apparent KD of MS2 coat protein (input ligand: FMN 200 uM): 24.9 nM | apparent KD of MS2 coat protein (input ligand: none): 30.2 nM
